One molecule from patent US20160208005A1 (Astellas, published 2016) can be followed below.

The target in test [1] is T1, human TSLP receptor (human, UniProt Q9HC73 23-371).
T1 sequence (looked up): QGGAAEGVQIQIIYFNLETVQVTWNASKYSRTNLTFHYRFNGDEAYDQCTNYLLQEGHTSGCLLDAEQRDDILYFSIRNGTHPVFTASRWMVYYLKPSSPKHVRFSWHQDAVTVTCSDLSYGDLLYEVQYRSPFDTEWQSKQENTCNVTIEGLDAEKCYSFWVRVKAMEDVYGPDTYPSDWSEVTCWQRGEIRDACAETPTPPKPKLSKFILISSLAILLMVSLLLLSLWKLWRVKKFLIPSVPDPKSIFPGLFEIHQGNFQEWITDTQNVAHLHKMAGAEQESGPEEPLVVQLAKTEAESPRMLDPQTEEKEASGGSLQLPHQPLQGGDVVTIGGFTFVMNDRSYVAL
The experiment in a line: cell-based or functional assay.

For test [2], the target named is T2, human TSLP receptor-mouse Fc fusion protein (human (receptor part), mouse (Fc part)).
T2 construct: Expressed in FreeStyle 293 cells and purified on Protein G; also called fusion protein of human TSLP receptor and mouse Fc
T2 chain: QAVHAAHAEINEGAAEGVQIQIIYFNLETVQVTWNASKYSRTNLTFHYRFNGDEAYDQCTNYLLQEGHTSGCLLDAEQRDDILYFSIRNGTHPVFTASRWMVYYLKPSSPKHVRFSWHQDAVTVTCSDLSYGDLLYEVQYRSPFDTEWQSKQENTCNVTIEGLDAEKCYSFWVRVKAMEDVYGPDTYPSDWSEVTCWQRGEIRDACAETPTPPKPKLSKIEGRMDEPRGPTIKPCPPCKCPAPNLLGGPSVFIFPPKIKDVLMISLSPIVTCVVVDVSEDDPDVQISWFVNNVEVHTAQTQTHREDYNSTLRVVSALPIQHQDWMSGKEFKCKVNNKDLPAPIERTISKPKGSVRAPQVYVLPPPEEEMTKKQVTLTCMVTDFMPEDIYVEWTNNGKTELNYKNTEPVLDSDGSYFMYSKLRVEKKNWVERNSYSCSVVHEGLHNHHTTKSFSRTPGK
The experiment in a line: SPR (Biacore 2000), antibody captured, human TSLP receptor-mouse Fc as analyte; reference TSLPR-012_141. The protocol:
(§1) In the SPR analysis, the analysis was performed using Biacore (registered trademark) 2000 (GE Healthcare Japan Corporation). Respective anti-human TSLP receptor antibodies were immobilized on the surface of a sensor chip CM5 using a Human Antibody Capture Kit and an Amine Coupling Kit (GE Healthcare Japan Corporation). The human TSLP receptor-mouse Fc fusion protein obtained in Example 1 was serially diluted with an HBS-EP solution (GE Healthcare Japan Corporation), and 100 μL of the solution was added to the flow path at a flow rate of 50 μL/min. By this measurement system, binding rate constant (ka), dissociation rate constant (kd), and dissociation constant (KD) of the human TSLP receptor-mouse Fc fusion protein and the anti-human TSLP receptor antibody were calculated using data analysis software (BIA Evaluation) (Table 1).
On the technique in general: Surface plasmon resonance follows binding to a sensor surface in real time, without labels.

In test [3] the target is T1, human TSLP receptor. The experiment in a line: cell-based or functional assay. The source holds these as a separate data set.
Test [4] deals with T2, human TSLP receptor-mouse Fc fusion …. As to the kind of experiment: SPR (Biacore 2000), antibody captured on CM5 chip by Human Antibody Capture Kit, human TSLP receptor-mouse Fc as analyte. The protocol:
as §1

B1: fully human T7-27 (antibody, human IgG1, kappa, V domains shown)
VH: EVQLLESGGGLVQPGGSLRLSCAASGFTFRSSAMHWVRQAPGKGLKWVSSVSGSGAGTYYADSVKGRFTISRDNPKNTLYLQMNSLRAEDTAVYYCVKEGGSRGFDYWGQGTLVTVSS
VL: DIQMTQSPSSLSASVGDRVTITCRASQDISNYLAWFQQKPGKAPKSLIYTASSLQSGVPSKFSGSGSGTDFTLTISSLQPEDFATYYCQQYNLYPPTFGQGTKVEIKR
modifications: deletion of lysine of the heavy chain C terminal occurred in a large part of the purified antibody
notes: Human IgG1/kappa; Expressed in FreeStyle 293 or CHO-K1SV cells; also called fully human antibody of T7-27
In general, Kd refers to a measure of binding affinity in units of concentration. Lower therefore signals a tighter complex. The term koff denotes the rate constant with which the complex falls apart. A low value points to a long-lived complex. As for B1, in the test with human TSLP receptor [1], the “IC50 (ng/mL); TSLP-induced MDC proteins production inhibition using human PBMC (5 ng/mL human TSLP mutant-Flag protein)” value came out at 0.12 ng/mL. In test [2], the “fold binding activity compared to TSLPR-012_141” value is approximately 3 fold. For the same molecule, in the test with human TSLP receptor [3], the “fold inhibition activity against TSLP-induced MDC proteins production compared to TSLPR-012_141” value is approximately 9 fold and the “fold inhibition activity against human TSLP-induced TARC mRNA expression compared to TSLPR-012_141” value is approximately 12 fold. In test [4], this molecule showed a Kd of 4.1 nM and a koff of 0.000125 s⁻¹.
